Like-named read-outs stand apart in the source and are kept apart here.

Experimental findings from doi:10.1101/2023.02.02.526913 are described below.

What all share (assay): cryo-EM structure
Test [1] has as its target microtubules prepared from porcine brain tubulin (porcine) (UniProt P02550).
Test [2] has the same target. The source holds these as a separate data set.
Test [3] has the same target. This is another data set of the same source.

Sequence of UniProt P02550 (P02550 whole entry, chain 1 of 2): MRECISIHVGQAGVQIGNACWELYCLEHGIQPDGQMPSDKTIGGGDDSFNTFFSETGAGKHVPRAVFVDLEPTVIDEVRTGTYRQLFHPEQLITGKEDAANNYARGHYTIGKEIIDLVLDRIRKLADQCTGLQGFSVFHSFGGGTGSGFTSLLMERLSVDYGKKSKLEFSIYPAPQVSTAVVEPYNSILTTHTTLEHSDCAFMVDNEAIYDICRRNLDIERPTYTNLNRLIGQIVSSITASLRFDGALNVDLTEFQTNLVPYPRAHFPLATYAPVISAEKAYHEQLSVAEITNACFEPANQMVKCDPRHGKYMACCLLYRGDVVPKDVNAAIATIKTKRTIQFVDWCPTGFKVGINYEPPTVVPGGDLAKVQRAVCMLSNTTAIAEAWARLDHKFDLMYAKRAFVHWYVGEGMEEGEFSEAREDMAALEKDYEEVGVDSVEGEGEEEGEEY
Sequence of UniProt P02550 (P02554 whole entry, chain 2 of 2, further chain): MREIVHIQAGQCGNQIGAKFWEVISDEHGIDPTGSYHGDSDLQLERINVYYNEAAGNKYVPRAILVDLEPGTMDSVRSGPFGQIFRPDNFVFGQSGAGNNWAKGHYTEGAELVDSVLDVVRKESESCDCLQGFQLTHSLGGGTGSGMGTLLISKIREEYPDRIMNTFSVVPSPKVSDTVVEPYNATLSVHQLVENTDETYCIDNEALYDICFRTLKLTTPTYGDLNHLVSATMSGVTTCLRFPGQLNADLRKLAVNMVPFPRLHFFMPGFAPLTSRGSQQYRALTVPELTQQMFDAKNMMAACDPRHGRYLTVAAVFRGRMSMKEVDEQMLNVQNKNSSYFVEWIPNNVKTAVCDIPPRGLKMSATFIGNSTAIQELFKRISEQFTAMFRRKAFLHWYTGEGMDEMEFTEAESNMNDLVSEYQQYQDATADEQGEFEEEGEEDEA

Take “KIF1A(aa1-393)-LZ-strepII (from UniProt Q12756 1-393) (domain or fragment)”: the decorated fraction of the kinesin sites on tubulin came to 74% in test [1] and 32% in test [2].

As for “KIF1A^P305L (KIF1A(aa1-393, P305L)-LZ-strepII) (from UniProt Q12756 1-393) (domain or fragment)”, the figures for the decorated fraction of the kinesin sites on tubulin in test [2] and in test [3] were 25% and 9%, respectively.
